Key:
[1] = molecular target: murine VCAM-1 (vascular endothelial adhesion molecule-1) (murine) (UniProt P29533); assay: bEnd.3 cells, unstimulated against IL-1α-stimulated
[2] = molecular target: murine VCAM-1 (vascular endothelial adhesion molecule-1) (murine) (UniProt P29533); assay: cell-based or functional assay
[3] = molecular target: murine VCAM-1 (vascular endothelial adhesion molecule-1) (murine) (UniProt P29533); assay: IL-1α-activated bEnd.3 cells treated with anti-VCAM-1•tTF, bound coaguligand detected with 125I-labeled 10H10

UniProt P29533, sequence (P29533 25-739): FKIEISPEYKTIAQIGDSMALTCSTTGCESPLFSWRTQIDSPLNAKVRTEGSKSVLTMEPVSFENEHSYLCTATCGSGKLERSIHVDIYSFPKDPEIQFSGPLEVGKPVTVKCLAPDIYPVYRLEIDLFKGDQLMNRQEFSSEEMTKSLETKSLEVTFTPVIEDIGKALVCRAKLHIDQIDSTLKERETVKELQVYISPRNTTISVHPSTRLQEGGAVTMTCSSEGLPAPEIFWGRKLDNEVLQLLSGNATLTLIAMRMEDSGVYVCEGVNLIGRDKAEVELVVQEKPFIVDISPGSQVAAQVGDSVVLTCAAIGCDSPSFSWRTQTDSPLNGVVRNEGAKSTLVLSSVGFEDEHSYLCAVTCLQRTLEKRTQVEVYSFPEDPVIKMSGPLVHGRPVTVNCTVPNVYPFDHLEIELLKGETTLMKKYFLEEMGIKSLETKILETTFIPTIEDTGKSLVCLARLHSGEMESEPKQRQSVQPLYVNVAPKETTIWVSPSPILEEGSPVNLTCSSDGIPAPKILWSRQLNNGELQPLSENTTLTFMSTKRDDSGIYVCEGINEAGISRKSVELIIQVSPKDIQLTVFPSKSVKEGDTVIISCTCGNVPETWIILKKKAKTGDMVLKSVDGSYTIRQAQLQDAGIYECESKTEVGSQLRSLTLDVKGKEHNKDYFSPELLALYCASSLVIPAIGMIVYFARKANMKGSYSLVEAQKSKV

amount bound to unstimulated cells against stimulated cells [1]: 50 % lower | Generation of factor Xa (chromogenic assay, S-2765), intact IL-1α-stimulated bEnd.3 cells (ng per 10^4 cells per 60 min) [2]: 3.17 | Generation of factor Xa (chromogenic assay, S-2765), intact unstimulated bEnd.3 cells (ng per 10^4 cells per 60 min) [2]: 1.64 | Generation of factor Xa (chromogenic assay, S-2765), saponin-permeabilized IL-1α-stimulated bEnd.3 cells (ng per 10^4 cells per 60 min) [2]: 98.8 | Generation of factor Xa (chromogenic assay, S-2765), saponin-permeabilized unstimulated bEnd.3 cells (ng per 10^4 cells per 60 min) [2]: 49.2 | factor Xa produced by permeabilized IL-1α-stimulated bEnd.3 cells preincubated with coaguligand, no Annexin V ([2]; scale: ng of factor Xa per 10,000 cells per 60 min): 95 | amount of anti-TF antibody bound at saturation [3]: 8.7 fmol | molecules of anti-TF antibody bound per cell at saturation (molecules per cell) [3]: 540000
Substance: anti-VCAM-1•tTF coaguligand (MK2.7 anti-VCAM-1 IgG covalently linked through SMPT to truncated human tissue factor) (from UniProt P13726 33-251)
